The target in data set [1] is T1, Interleukin-8 (IL8, CXCL8), C-terminal His-tagged (Homo sapiens, UniProt P10145 SEQ:1-72). Description: competition; competition TR-FRET; affinity within error of unpegylated parent; parent given as Aptamer 38 and as Aptamer 3. The settings on record: tags: C-terminal His (Sino Biological); stem-loop. As for the experimental part:
(§1) To better understand the sequence requirements and to confirm the stem structures of members of the Aptamer 3 family as determined from sequence covariation analysis from both the primary and secondary (degenerate) selections, a series of variants which included mutations and deletions to the predicted stems were synthesized and screened (Table 24). Activity of each of these variants were tested using a time resolved competition TR-FRET assay in which the labeled parent Aptamer 3 was competed with increasing concentrations of unlabeled variants for binding to IL8 (FIG. 14). Briefly, 2-fold dilutions of thermally equilibrated aptamers were made in TR-FRET Buffer (50 mM MOPS, pH 7.4, 125 mM NaCl, 5 mM KCl, 50 μM CHAPS, 0.1 mg/mL BSA, 1 mM CaCl₂, and 1 mM MgCl₂). 5 μL of aptamer or control solution was added to 5 μl mix of 10 nM C-terminal His-tagged-IL8, 60 nM ALEXA FLUOR® 647-labeled Aptamer, and 5 nM anti-His-Eu (Perkin Elmer) in a black wall low volume 384 well plate (Greiner). For control, 5 μl of 1000-fold excess of unlabeled parent aptamer or 5 μl TR-FRET buffer alone was added to the mix of ALEXA FLUOR® 647-labeled aptamer, His-IL8, and anti-His-Eu. The plate was covered with a plate seal and subsequently incubated in the dark for 1 hour at room temperature. The plate was read on a Biotek CYTATION™ 5 plate reader. […]
(TR-FRET usually uses a lanthanide donor and a delayed reading to cut background.)

Data set [2] addresses T1, Interleukin-8 (IL8, CXCL8), C-terminal …. Description: inhibition; inhibition of IL8 binding to CXCR1 cells, 5 nM IL8, protein limited; neutrophil migration 3 nM (Table 35). The settings on record: tags: C-terminal His (Sino Biological); stem-loop. As to the method: (§2) CXCR1 overexpressing cells were used to confirm that aptamers could block IL8 binding to its cognate receptor, CXCR1, in a functional setting. Briefly, CXCR1-overexpressing cells were plated in a 96 well plate and seeded overnight. Serially diluted aptamers and 5 nM IL8 were mixed in cell culture media and applied to cells for 2 hours at 37° C. Media was aspirated, and cells were washed 3× with PBS for 5 minutes. Cells were lysed in Ultra HiBlock Buffer (Perkin Elmer) with gentle agitation. IL8 levels were determined using Ultra TR-FRET (Perkin Elmer).

For data set [3] the target is unchanged. In words: inhibition; inhibition of IL8 binding to CXCR1 cells, protein limited; neutrophil migration 2 nM. The following applies: tags: C-terminal His (Sino Biological); stem-loop. As for the experimental part: as §2
The target is the same in data set [4]. In words: competition; competition TR-FRET; S1 disrupted. The following applies: tags: C-terminal 6xHis (Sino Biological). As for the experimental part:
as §1, with “Activity” for “To better understand the sequence requirements and to confirm the stem structures of members of the Aptamer 3 family as determined from sequence covariation analysis from both the primary and secondary (degenerate) selections, a series of variants which included mutations and deletions to the predicted stems were synthesized and screened (Table 24). Activity”
(§3) To better understand the sequence requirements and confirm the stem structures of members of the Aptamer 8 family as determined from sequence covariation analysis from both the primary and secondary (degenerate) selections, a series of variants which included mutations and deletions to the predicted stems (Tables 45 and 46) were synthesized and screened. […]

Data set [5] has the same target. In words: competition; competition TR-FRET; U13A. The following applies: tags: C-terminal 6xHis (Sino Biological). As to the method:
as §1, with “Activity” for “To better understand the sequence requirements and to confirm the stem structures of members of the Aptamer 3 family as determined from sequence covariation analysis from both the primary and secondary (degenerate) selections, a series of variants which included mutations and deletions to the predicted stems were synthesized and screened (Table 24). Activity”
as §3

What is called IC50 is the concentration needed to halve the response being measured.

On to GAUGACGGUAGAUUACGGGUAGAGUGACCGCAUC (ssRNA, 2'-F G; 2'-OMe A,C,U; 5' 40 kDa PEG via C6NH2; 3' idT) [Aptamer P01], for which the binding result in data set [1] is “binds”.
On to UGAUGACGGUAGAUUACGGGUAGAGUGACCGCAUCU (ssRNA, 2'-F G; 2'-OMe A,C,U; 5' C6NH2; 3' idT) [Aptamer 3], for which, in data set [2], the IC50 was found to be 3 nM.
GGCGACGGUAGAUUAUGGGCAGUGUGACCGCGCC (ssRNA, 2'-F G; 2'-OMe A,C,U; 5' C6NH2; 3' idT) [Aptamer 147]: the 50% inhibitory concentration (IC50) in data set [3] was 3 nM. In other words, the single-digit nanomolar range.
On to CAAUGGGAAAUGUGAGAUGGGUUGCCG (ssRNA, 2'-F G, 2'-OMe A/C/U, 5' C6NH2, 3' idT) [Aptamer 214], for which the binding signal in data set [4] was more than 10 fold worse than Aptamer 8.
Take CGGUGGGAAAAGUGAGAUGGGUUGCCG (ssRNA, 2'-F G, 2'-OMe A/C/U, 5' C6NH2, 3' idT) [Aptamer 61]: in data set [5], the binding result is recorded as “binds”.

(Values after US20210230599, “STEM-LOOP COMPOSITIONS AND METHODS FOR INHIBITING INTERLEUKIN-8” (VITRISA THERAPEUTICS, INC., published 2021).)
